How the values were obtained:
[1] = tested on: SBS#75114 (synthetic); assay: cell_activity; settings: KRAB fusion mRNA, C9 line, isoform-specific RT-qPCR
[2] = tested on: SBS#75115 (synthetic); assay: cell_activity; settings: KRAB fusion mRNA, C9 line, isoform-specific RT-qPCR; microarray: only C9orf72 repressed

“CACGCCCCGGCCCCGGCCCCGGCCCCTA (double strand) [C9orf72 reverse site, frame i]” gave an activity [1] greater than 70 % repression and an activity [2] greater than 70 % repression.
